Experiments:
PAR-2 = molecular target: T1, PAR-2 (Rattus norvegicus, UniProt Q63645); experiment: Intracellular Ca2+ response of primary neuronal cultures; assay type: cell-based; details: primary neuronal cultures of adult rat DRGs
T1 construct: assessing the response of primary neuronal cultures to trypsin and AcPep; endogenous in cells; host or cells: primary cultures of adult Sprague-Dawley rat DRG neurons
T1 sequence (Q63645 26-397): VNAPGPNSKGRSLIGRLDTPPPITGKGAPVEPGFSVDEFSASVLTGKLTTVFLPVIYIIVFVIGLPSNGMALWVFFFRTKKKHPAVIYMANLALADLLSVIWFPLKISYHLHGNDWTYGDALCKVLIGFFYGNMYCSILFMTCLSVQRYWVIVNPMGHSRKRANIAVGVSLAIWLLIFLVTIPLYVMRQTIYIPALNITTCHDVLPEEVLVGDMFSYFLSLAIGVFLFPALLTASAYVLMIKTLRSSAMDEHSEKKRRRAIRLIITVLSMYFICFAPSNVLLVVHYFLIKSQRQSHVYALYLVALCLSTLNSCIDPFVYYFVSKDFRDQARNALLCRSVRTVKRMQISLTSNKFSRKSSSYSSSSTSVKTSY
Text: In the results which follow, it is shown that activated proteases can have direct effects on sensory neurons, mediated by specific receptors. PAR-1 and PAR-2 are present in rat DRGs (Young et al. 2000). The presence of one of these receptors, PAR-2, in sensory neurons is first confirmed by finding evidence of mRNA and protein expression in adult rat thoracic DRGs. The functional implications of PAR-2 expression are then examined by assessing the response of primary neuronal cultures to trypsin and AcPep. Both agonists increased intracellular Ca^2+ confirming previously reported findings that a functional PAR 2 receptor is present in adult rat DRGs (Steinhoff et al. 2000). Trypsin stimulates both PAR-1 and PAR-2 and therefore an increase in intracellular Ca^2+ can be caused by activation of the two different receptors. […] Therefore the increased intracellular Ca^2+ response to AcPep reflects specific PAR-2 mediated activation.
Cell Culture. Primary cultures of rat DRG neurons were prepared from male adult Sprague Dawley rats (200-250 gm). Following enzymatic treatment and dissociation, neurons were spun through a percoll cushion (Hofbauer et al. 1998) and were plated at a density of 10,000-20,000 neurons/well of a 48 well tissue culture plate. […]

PAR-1 = molecular target: T2, PAR-1 (Homo sapiens, UniProt P25116); details: Blackhart et al. 1996; cited from earlier work
T2 sequence (P25116 22-425): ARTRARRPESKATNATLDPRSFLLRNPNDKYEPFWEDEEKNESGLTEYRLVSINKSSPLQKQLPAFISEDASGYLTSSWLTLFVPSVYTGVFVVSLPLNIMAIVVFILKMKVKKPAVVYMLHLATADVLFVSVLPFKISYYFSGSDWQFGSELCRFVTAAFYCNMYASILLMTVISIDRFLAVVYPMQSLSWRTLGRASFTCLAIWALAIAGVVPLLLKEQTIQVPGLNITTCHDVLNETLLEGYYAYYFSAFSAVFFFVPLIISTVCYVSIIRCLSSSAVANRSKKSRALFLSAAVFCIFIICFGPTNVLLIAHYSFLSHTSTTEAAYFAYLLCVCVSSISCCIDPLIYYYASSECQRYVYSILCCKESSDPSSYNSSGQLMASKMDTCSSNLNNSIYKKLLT

[1] = system: peripheral afferent nerve endings; details: subcutaneous injection of 500 μg into the rat paw; cited from earlier work

- intracellular Ca2+ (PAR-2): increased
Substance: SLIGRL (PEPTIDE (1)..(6) PAR-2 activating peptide; listed as Rattus sp.) [AcPep]
- activation of PAR-1 (PAR-1): does not activate PAR-1
- release of CGRP and Substance P from peripheral afferent nerve endings [1]: results in the release of CGRP and Substance P

— US7541156B1, “Method of identifying antinociceptive compounds using protease activated receptor-2” (priority 2000, dated 2009)
